Experimental findings from patent publication US12428446B2, “Peptide compound or pharmaceutically acceptable salt thereof” (Eyebio Korea, priority 2019, dated 2025) are described below.

*1 amine or outer side, *2 acyl side, *3 side chain or, on linkers, in order; H or OH if unused. Primed or numbered codes have the meaning given here. Where no end group is shown, it is not given here. [ ]: non-standard residue; d: D form. The star is where a group is joined. Pro(trans-4-NH2) = O=C([C@@H]1C[C@@H](N[*:3])CN1[*:1])[*:2]; Pro(cis-4-F) = O=C(O)[C@@H]1C[C@H](F)CN1; Pro(4,4-Me2) = CC1(C)CN[C@H](C(=O)O)C1; Asu′ = aspartimide (aminosuccinimide); Hyp = O=C(O)[C@@H]1C[C@@H](O)CN1; Aib = CC(C)(N)C(=O)O; OiPr = CC(C)O*

Data set [1] relates to IL-1β secretion, Raw 264.7 cells. Nature of the data set: Anti-inflammatory efficacy: IL-1β ELISA in LPS-stimulated Raw 264.7 macrophages. The format is cell-based, mouse. Here is the method: An anti-inflammatory efficacy was evaluated for representative examples of the above examples. Specifically, in order to confirm whether Examples 10, 32, 41, 55, 59 and 91, which are representative examples of 5 amino acid residues, Examples 11 and 30, which are representative examples of 6 amino acid residues, Example 86, which is a representative example of 7 amino acid residues, and Examples 103 and 104, which are representative examples of 8 amino acid residues, have an anti-inflammatory effect, a change in the secretion amount of inflammatory cytokines was confirmed by enzyme-linked immunosorbent assay (ELISA) using Raw 264.7 cells, which are macrophage (monocyte) cell lines.
Specifically, the Examples were diluted in Raw264.7 cells (Korean Cell Line Bank, 40071) at a concentration of 10 nM, 100 nM, 1 μM, and 10 μM, respectively, and pretreated for 1 hour, and then LPS (Sigma, L6529) at a concentration of 1 μg/ml was added to induce an inflammatory response. After 24 hours of induction, the cell culture supernatant was collected and analyzed. Enzyme-linked immunosorbent assay was performed using Mouse IL-6 Quantikine ELISA Kit (R&D systems, M6000B), TNF-alpha Quantikine ELISA Kit (R&D systems, MTA00B), Mouse IL-1 beta/IL-1F2 Quantikine ELISA Kit (R&D systems, MLB00C) in accordance with the manufacturer's manual.

Data set [2] is described as follows: Evaluation of dissolution stability (content change on storage in dissolved state). The data set is classed as physicochemical. The settings on record: 1 mg/1 ml dissolved state, 40° C. and RH 75%.

Take “Hyp-Gly-Gln-Asu-Gly-Leu-Ala-Gly ([Hyp]GQ[Asu′]GLAG) [Example 103]”: the “IL-1β level increased by LPS” value in data set [1] (1 μM peptide, 1 h pretreatment, LPS 1 μg/ml 24 h) is “significantly reduced”. The “anti-inflammatory effect by regulating the secretion of IL-1β” value in data set [1] (summary, concentration not given) is listed as “significant anti-inflammatory effect”. In addition, in data set [2], the “Day 1 content (%)” value turned out to be 97.20%, the “Day 3 content (%)” value is listed as 96.90%, the “Day 7 content (%)” value came out at 94.88% and the “Initial content (%)” value stood at 97.09%.

For “Hyp-Gly-Gln-Leu-Val-Leu-Ala ([Hyp]GQLVLA) [Example 97]”, in data set [2], the “Day 1 content (%)” value was found to be 95.01%, the “Day 3 content (%)” value is listed as 94.31%, the “Day 7 content (%)” value is reported as 94.08% and the “Initial content (%)” value was 97.08%.

Take “4,4-dimethyl Pro-Gly-Gln-Asp-Gly-Leu ([Pro(4,4-Me2)]GQDGL) [Example 56]”: in data set [2], the “Day 1 content (%)” value was 84.52%, the “Day 3 content (%)” value was 79.98%, the “Day 7 content (%)” value is 51.41% and the “Initial content (%)” value is given as 90.94%.

As to “Hyp-Gly-Gln-D Asp-Leu ([Hyp]GQ[dD]L) [Example 125]”, in data set [2], the “Day 1 content (%)” value came out at 97.15%, the “Day 3 content (%)” value was found to be 95.07%, the “Day 7 content (%)” value is on record as 88.48% and the “Initial content (%)” value came to 98.28%.

In the case of “Hyp-Gly-Gln-Asp-Leu-Leu-Ala ([Hyp]GQDLLA) [Example 38]”, in data set [2], the “Day 1 content (%)” value turned out to be 92.19%, the “Day 3 content (%)” value is listed as 88.19%, the “Day 7 content (%)” value is 85.93% and the “Initial content (%)” value worked out at 97.06%.

Turning to “Hyp-Gly-Gln-Asp-Gly-Leu-D Ala ([Hyp]GQDGL[dA]) [Example 66]”, in data set [2], the “Day 1 content (%)” value is given as 89.15%, the “Day 3 content (%)” value came to 79.64%, the “Day 7 content (%)” value worked out at 60.49% and the “Initial content (%)” value was 96.42%.

“Hyp-Leu-Gln-Asp-Gly ([Hyp]LQDG) [Example 75]”: in data set [2], the “Day 1 content (%)” value is 91.10%, the “Day 3 content (%)” value is on record as 75.24%, the “Day 7 content (%)” value is given as 61.06% and the “Initial content (%)” value came out at 98.53%.

On to “Hyp-Gly-Gln-Ala-Leu-Leu ([Hyp]GQALL) [Example 123]”, for which, in data set [2], the “Day 1 content (%)” value worked out at 99.14%, the “Day 3 content (%)” value worked out at 98.98%, the “Day 7 content (%)” value is reported as 98.86% and the “Initial content (%)” value amounted to 99.26%.

For the substance “Hyp-Gly-Gln-Asu-Gly-Leu-Ala ([Hyp]GQ[Asu′]GLA) [Example 102]”, in data set [2], the “Day 1 content (%)” value was 90.18%, the “Day 3 content (%)” value worked out at 85.07%, the “Day 7 content (%)” value came out at 81.09% and the “Initial content (%)” value turned out to be 92.47%.

Consider “Hyp-Gly-Gln-Asn-Gly-Leu ([Hyp]GQNGL) [Example 81]”, for which, in data set [2], the “Day 1 content (%)” value is reported as 93.01%, the “Day 3 content (%)” value worked out at 92.10%, the “Day 7 content (%)” value came to 89.51% and the “Initial content (%)” value is recorded as 95.87%.

With “Hyp-Gly-Gln-Asp-Gly-D Leu-Ala ([Hyp]GQDG[dL]A) [Example 65]”, in data set [2], the “Day 1 content (%)” value amounted to 92.97%, the “Day 3 content (%)” value came out at 86.96%, the “Day 7 content (%)” value was found to be 75.40% and the “Initial content (%)” value is recorded as 95.64%.

On to “cis-4F Pro-Gly-Gln-Asp-Gly-Leu-Ala ([Pro(cis-4-F)]GQDGLA) [Example 51]”, for which, in data set [2], the “Day 1 content (%)” value was 83.35%, the “Day 3 content (%)” value is recorded as 72.55%, the “Day 7 content (%)” value is 49.31% and the “Initial content (%)” value is recorded as 92.07%.

On to “Hyp-Gly-Gln-Leu-Val ([Hyp]GQLV) [Example 95]”, for which, in data set [2], the “Day 1 content (%)” value stood at 98.62%, the “Day 3 content (%)” value turned out to be 98.10%, the “Day 7 content (%)” value came out at 97.78% and the “Initial content (%)” value came out at 98.64%.

For the substance “Hyp-Gly-Gln-Glu-Aib-Leu-Ala ([Hyp]GQE[Aib]LA) [Example 92]”, in data set [2], the “Day 1 content (%)” value is reported as 97.05%, the “Day 3 content (%)” value was 96.92%, the “Day 7 content (%)” value is 96.56% and the “Initial content (%)” value was 96.92%.

For the substance “Hyp-Gly-Gln-Asp-Leu-Leu ([Hyp]GQDLL) [Example 35]”, in data set [2], the “Day 1 content (%)” value was determined as 97.50%, the “Day 3 content (%)” value is 95.78%, the “Day 7 content (%)” value is given as 93.68% and the “Initial content (%)” value is on record as 98.51%.

In the case of “trans-4NH2-Pro-Gly-Gln-Asp-Gly-Leu ([Pro(trans-4-NH2)]GQDGL) [Example 47]”, in data set [2], the “Day 1 content (%)” value is given as 84.03%, the “Day 3 content (%)” value is given as 75.02%, the “Day 7 content (%)” value was 51.42% and the “Initial content (%)” value turned out to be 94.90%.

Turning to “Hyp-Gly-Gln-Glu-Gly ([Hyp]GQEG) [Example 67]”, in data set [2], the “Day 1 content (%)” value turned out to be 99.14%, the “Day 3 content (%)” value came out at 98.75%, the “Day 7 content (%)” value amounted to 98.07% and the “Initial content (%)” value came to 98.36%.

Take “Hyp-Gly-Gln-Asp-Gly-Leu-Ala ([Hyp]GQDGLA) [Example 12]”: in data set [2], the “Day 1 content (%)” value is given as 89.90%, the “Day 3 content (%)” value stood at 79.04%, the “Day 7 content (%)” value is on record as 58.75% and the “Initial content (%)” value amounted to 95.31%.

For “Hyp-Gly-Gln-Leu-Leu-Leu-Ala ([Hyp]GQLLLA) [Example 96]”, in data set [2], the “Day 1 content (%)” value is 97.14%, the “Day 3 content (%)” value is on record as 96.64%, the “Day 7 content (%)” value was determined as 96.02% and the “Initial content (%)” value amounted to 98.07%.

Take “Hyp-Gly-Gln-Asp (isopropyl ester)-Gly ([Hyp]GQD(OiPr)G) [Example 115]”: in data set [2], the “Day 1 content (%)” value was found to be 88.57%, the “Day 3 content (%)” value was 82.00%, the “Day 7 content (%)” value came to 71.64% and the “Initial content (%)” value was 92.71%.

For the substance “Hyp-Gly-Gln-Asp-Val-Leu [Example 34] ([Hyp]GQDVL)”, in data set [2], the “Day 1 content (%)” value came out at 97.05%, the “Day 3 content (%)” value turned out to be 95.50%, the “Day 7 content (%)” value is recorded as 91.59% and the “Initial content (%)” value was determined as 97.18%.

As to GQDGLA [Example 29], in data set [2], the “Day 1 content (%)” value stood at 93.74%, the “Day 3 content (%)” value amounted to 92.16%, the “Day 7 content (%)” value is recorded as 90.82% and the “Initial content (%)” value was determined as 95.19%.

For LGLAGPK [Example 20], in data set [2], the “Day 1 content (%)” value stood at 98.77%, the “Day 3 content (%)” value turned out to be 99.69%, the “Day 7 content (%)” value was determined as 99.66% and the “Initial content (%)” value stood at 99.35%.

As to “Hyp-Gly-Gln-Asp-Val-Leu [Example 22] ([Hyp]GQDVL)”, in data set [2], the “Day 1 content (%)” value was found to be 85.47%, the “Day 3 content (%)” value is given as 83.10%, the “Day 7 content (%)” value amounted to 82.67% and the “Initial content (%)” value was 88.14%.

Take “Hyp-Gly-Gln-Asp-Aib-Leu-Ala ([Hyp]GQD[Aib]LA) [Example 83]”: in data set [2], the “Day 1 content (%)” value is given as 95.35%, the “Day 3 content (%)” value was 94.70%, the “Day 7 content (%)” value is recorded as 94.00% and the “Initial content (%)” value was determined as 95.42%.

For the substance “Hyp-Gly-Gln-Glu-Leu-Leu ([Hyp]GQELL) [Example 88]”, in data set [2], the “Day 1 content (%)” value turned out to be 98.94%, the “Day 3 content (%)” value is listed as 98.07%, the “Day 7 content (%)” value was 97.37% and the “Initial content (%)” value came out at 99.23%.

Turning to “Hyp-Gly-Gln-Ala-Gly ([Hyp]GQAG) [Example 13]”, in data set [2], the “Day 1 content (%)” value turned out to be 98.39%, the “Day 3 content (%)” value turned out to be 98.04%, the “Day 7 content (%)” value is on record as 97.64% and the “Initial content (%)” value was determined as 98.51%.

On to “Hyp-Gly-Gln-Asp-Gly-Leu (isopropyl ester) [Example 107]”, for which, in data set [2], the “Day 1 content (%)” value turned out to be 76.34%, the “Day 3 content (%)” value turned out to be 65.41%, the “Day 7 content (%)” value is 58.41% and the “Initial content (%)” value worked out at 87.55%.

For the substance “Hyp-Gly-Gln-Asp-Gly-Val ([Hyp]GQDGV) [Example 71]”, in data set [2], the “Day 1 content (%)” value is on record as 93.07%, the “Day 3 content (%)” value is listed as 88.76%, the “Day 7 content (%)” value worked out at 82.04% and the “Initial content (%)” value came out at 95.21%.

In the case of “Hyp-Gly-D Gln-Asp-Gly ([Hyp]G[dQ]DG) [Example 58]”, in data set [2], the “Day 1 content (%)” value turned out to be 98.01%, the “Day 3 content (%)” value worked out at 97.85%, the “Day 7 content (%)” value was 97.56% and the “Initial content (%)” value was 98.03%.

On to “Hyp-Gly-Gln-Asp-Gly-D Leu ([Hyp]GQDG[dL]) [Example 62]”, for which, in data set [2], the “Day 1 content (%)” value turned out to be 92.60%, the “Day 3 content (%)” value amounted to 84.99%, the “Day 7 content (%)” value came out at 70.41% and the “Initial content (%)” value came out at 97.24%.
